Consider seven molecules from patent US20260250410A1, “ANTIBODY AND USE THEREOF” (SICHUAN HUIYU PHARMACEUTICAL CO., LTD., priority 2022, published 2026).

Where a chain is given by its changes, count along the chain named.

Assay [1] deals with MDA-MB-231 cells. Kind of assay: Endocytosis capacity of humanized antibodies. The format is cell-based, human. As to conditions: antibody 1.5 μg/mL; for 1 h endocytosis (%): MDA-MB-231, 1 h at 37° C.; for 2 h endocytosis (%): MDA-MB-231, 2 h at 37° C. How it is done: The endocytosis capacity of the anti-CDCP1 humanized antibody was detected with reference to example 5. MDA-MB-231 cells were subjected to digestion with 5 mM EDTA, and plated at 3×10^4 cells/well after cell counting. After adding an Fc blocker and blocking at room temperature for 10 mins, a test antibody (1.5 μg/mL) was added, and the mixture was incubated at 4° C. for 30 mins, centrifuged, and washed twice with PBS+2% FBS, then the cells were divided into three equal portions (labeled as 0 h, 1 h, 2 h), cells labeled as 1 h and 2 h time points were added to 200 μL of cell culture medium, and cultured at 37° C. for 1 h and 2 h, respectively. Cells at 0 h point were centrifuged, a secondary antibody (PE anti-human IgG Fc Antibody, Biolegend, 410708) was added, and the mixture was incubated at 4° C. for 30 mins, centrifuged, and washed twice with PBS+2% FBS, and detection was performed using a flow cytometer. After incubation of cells labeled as 1 h and 2 h points at 37° C. was completed, a secondary antibody was added (in the same steps as those at 0 h point), Geo-MFI of the signal under the same voltage was collected as detection signal at 0 h, and antibody internalization rate was calculated according to the following equation: Internalization (%)=(Geo-MFI (0 h)-Geo-MFI (1, 2 h))/Geo-MFI (0 h)×100%.

A further assay addresses T1, HuCDCP1-C (Homo sapiens, UniProt Q9H5V8).
T1 construct: made in house; host or cells: HEK-293T
T1 sequence (Q9H5V8 30-667): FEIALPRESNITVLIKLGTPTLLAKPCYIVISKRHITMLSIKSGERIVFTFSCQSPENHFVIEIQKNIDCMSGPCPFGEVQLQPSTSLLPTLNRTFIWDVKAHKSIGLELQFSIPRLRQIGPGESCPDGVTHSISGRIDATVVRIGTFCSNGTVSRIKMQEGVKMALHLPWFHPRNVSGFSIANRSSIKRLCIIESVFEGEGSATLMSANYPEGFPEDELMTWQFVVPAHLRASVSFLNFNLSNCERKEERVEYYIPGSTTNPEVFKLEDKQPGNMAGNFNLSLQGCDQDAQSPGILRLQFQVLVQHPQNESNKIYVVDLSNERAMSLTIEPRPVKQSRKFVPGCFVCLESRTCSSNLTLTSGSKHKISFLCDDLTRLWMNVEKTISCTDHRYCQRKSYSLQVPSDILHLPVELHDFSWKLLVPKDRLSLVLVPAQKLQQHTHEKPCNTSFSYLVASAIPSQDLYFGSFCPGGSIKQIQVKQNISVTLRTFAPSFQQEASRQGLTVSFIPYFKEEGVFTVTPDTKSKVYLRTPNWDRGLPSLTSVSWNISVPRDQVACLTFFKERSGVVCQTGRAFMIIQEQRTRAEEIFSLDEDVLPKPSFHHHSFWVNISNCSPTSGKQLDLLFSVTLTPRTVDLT
Kind of assay: Caterra affinity of humanized anti-CDCP1 antibodies. The format is binding. Particulars: HuCDCP1-C 2 μg/ml immobilized. As to the method:
The humanized anti-CDCP1 antibodies obtained from Example 11 were subjected to gene cloning, constructed into pTT5 expression vector for a small amount of expression in CHO cells (Expi-CHOS: Gibco A29127), and purified with an Fc affinity column (AT Protein A Diamond Plus. No. AA402312). Antibody purity was analyzed by HPLC and determined by Nanodrop. High-throughput affinity assay was carried out for a small amount of antibodies by Caterra.

A further assay concerns PC3 cells. In words: Endocytosis capacity of murine monoclonal antibody (flow cytometry internalization). As to conditions: PC3, 2 h at 37° C., antibody 1.5 μg/mL. The format is cell-based, human. How it is done: (§1) The endocytosis capacity of the antibody was detected for 0.5 to 2 hours. MDA-MB-231 and PC3 cells were subjected to digestion with 5 mM EDTA, and plated at 4×10^4 cells/well after cell counting. After adding an Fc blocker (Human TruStain FcX™, Biolegend, 422302) and blocking at room temperature for 10 mins, a test antibody (1.5 μg/mL) was added, and the mixture was incubated at 4° C. for 30 mins, centrifuged, and washed twice with PBS+2% FBS, then the cells were divided into four equal portions (labeled as 0 h, 0.5 h, 1 h, 2 h), cells labeled as 0.5 h, 1 h, 2 h time points were added to a cell culture medium at 200 µL/well, and cultured at 37° C. for 0.5 h, 1 h, 2 h, respectively. Cells at 0 h point were centrifuged to remove supernatant, a secondary antibody (PE anti-human IgG Fc Antibody, Biolegend, 410708) was added, and the mixture was incubated at 4° C. for 30 mins, centrifuged, and washed twice with PBS+2% FBS, and detection was performed using a flow cytometer. After incubation of cells labeled as 0.5 h, 1 h, and 2 h points at 37° C. was completed, a secondary antibody was added (in the same steps as those at 0 h point), Geo-MFI of the signal under the same voltage was collected as detection signal at 0 h, and antibody internalization rate was calculated according to the following equation: Internalization (%)=(Geo-MFI (0 h)-Geo-MFI (0.5, 1, 2 h))/Geo-MFI (0 h)×100%.
For orientation: A flow cytometer gives signals particle by particle.

For assay [2], the system named is MDA-MB-231 cells. The description is as above. As to conditions: MDA-MB-231, 2 h at 37° C., antibody 1.5 μg/mL. The format is cell-based, human. How it is done: as §1
The test system of assay [3] is MDA-MB-231 cells. Kind of assay: Transwell tumor cell migration experiment. The format is cell-based, human. As to conditions: MDA-MB-231, antibody 10 μg/ml. As to the method: In order to determine the effect of antibodies on tumor cell metastasis, the migration ability of tumor cells was examined in this study according to a transwell experiment. The specific cell migration experiment involved culturing and collecting MDA-MB-231 cells, washing them once with PBS, adjusting the density to 8×10^5 cells/mL, adding the antibody to be tested to the cells such that the working concentration thereof was 10 μg/ml, co-incubating for 30 mins, adding a cell suspension to the upper chamber of the transwell chamber, placing the transwell chamber in the incubator for 12-48 h, then removing the chamber (transwell chamber, to examine cell migration ability), immobilizing the cells, staining the cells with crystal violet for 15 mins, washing, air drying, mounting, and taking photos of 4-5 fields of view under a microscope, and counting the number or area of the stained cells using imageJ analysis software, the number or area was used as the basis for determining tumor cell migration.

B1: 1CP-124: humanized anti-CDCP1 antibody produced by 3C11; VH SEQ ID NO: 339, VL SEQ ID NO: 351 (antibody, V domains shown)
VH: QVQLVQSGAEVKKPGASVKVSCKASGYNFISYWLHWVRQAPGQGLEWMGGIYPGNTDTTYNQKFKGRVTMTRDTSTSTVYMELSSLRSEDTAVYYCIRYDYDRGMDYWGQGTLVTVSS
VL: DIQMTQSPSSLSASVGDRVTITCRASEDIYYRLAWYQQKPGKAPKLLISGATALETGVPSRFSGSGSGKDYTFTISSLQPEDIATYYCQHYWNIPWTFGQGTKVEIK
modifications: humanized antibody 3C11 heavy chain variable region 01; humanized antibody 3C11 light chain variable region 01
Regarding B1, in the assay on MDA-MB-231 cells [1], the “1 h endocytosis (%)” value was 38.17% and the “2 h endocytosis (%)” value is reported as 56.39%. Besides, in the assay with HuCDCP1-C, the “ka” value amounted to 148000 M⁻¹ s⁻¹ and the “kd” value worked out at 1.47e-05 s⁻¹.

B2: 1CP-125: humanized anti-CDCP1 antibody produced by 3C11; VH SEQ ID NO: 340, VL SEQ ID NO: 351 (antibody, V domains shown)
VH: B1 VH with R72A
VL: B1 VL
modifications: humanized antibody 3C11 heavy chain variable region 02; humanized antibody 3C11 light chain variable region 01
As for B2, in the assay on MDA-MB-231 cells [1], the “1 h endocytosis (%)” value was 79.56% and the “2 h endocytosis (%)” value was 88.62%. For the same molecule, in the assay with HuCDCP1-C, the “ka” value turned out to be 151000 M⁻¹ s⁻¹ and the “kd” value is 2.17e-05 s⁻¹.

B3: 1CP-129: humanized anti-CDCP1 antibody produced by 3C11; VH SEQ ID NO: 340, VL SEQ ID NO: 352 (antibody, V domains shown)
VH: B1 VH with R72A
VL: B1 VL with F73L
modifications: humanized antibody 3C11 heavy chain variable region 02; humanized antibody 3C11 light chain variable region 02
In the case of B3, in the assay with MDA-MB-231 cells [1], the “1 h endocytosis (%)” value is on record as 36.18% and the “2 h endocytosis (%)” value amounted to 54.25%. In addition, in the assay with HuCDCP1-C, the “ka” value worked out at 160000 M⁻¹ s⁻¹ and the “kd” value amounted to 1e-05 s⁻¹.

B4: 1CP-128: humanized anti-CDCP1 antibody produced by 3C11; VH SEQ ID NO: 339, VL SEQ ID NO: 352 (antibody, V domains shown)
VH: B1 VH
VL: B1 VL with F73L
modifications: humanized antibody 3C11 heavy chain variable region 01; humanized antibody 3C11 light chain variable region 02
B4: in the assay with MDA-MB-231 cells [1], the “1 h endocytosis (%)” value was found to be 36.87% and the “2 h endocytosis (%)” value was 55.68%. For the same molecule, in the assay with HuCDCP1-C, the “ka” value came out at 139000 M⁻¹ s⁻¹ and the “kd” value is 1e-05 s⁻¹.

B5: 1CP-152: humanized anti-CDCP1 antibody produced by 8C9; VH SEQ ID NO: 344, VL SEQ ID NO: 354 (antibody, V domains shown)
VH: EVQLVESGGGLVQPGRSLRLSCTTSGLTFTHYHMSWVRQAPGKGLEWVAIIRNKAYGYTTDYSASVRGRFTISRDDSKSILYLQMNSLKTEDTAVYYCVREGGYGYDGTFAYWGQGTLVTVSS
VL: DIQMTQSPSSLSASVGDRVTITCRASESVDNYGISFMNWFQQKPGQAPKLLIYAASNQGSGVPSRFSGSGSGTDFTLTISSMQPEDFATYYCQQSKEVPRTFGGGTKVEIK
modifications: humanized antibody 8C9 heavy chain variable region 02; humanized antibody 8C9 light chain variable region 01
With B5, in the assay with MDA-MB-231 cells [1], the “1 h endocytosis (%)” value is given as 54.39% and the “2 h endocytosis (%)” value came out at 69.96%. In addition, in the assay with HuCDCP1-C, the “ka” value was 114000 M⁻¹ s⁻¹ and the “kd” value was determined as 0.000465 s⁻¹.

B6: 1CP-157: humanized anti-CDCP1 antibody produced by 8C9; VH SEQ ID NO: 345, VL SEQ ID NO: 355 (antibody, V domains shown)
VH: B5 VH with L45P
VL: B5 VL with A47P
modifications: humanized antibody 8C9 heavy chain variable region 03; humanized antibody 8C9 light chain variable region 02
Consider B6, for which, in the assay with MDA-MB-231 cells [1], the “1 h endocytosis (%)” value amounted to 56.06% and the “2 h endocytosis (%)” value was 70.74%. Further, in the assay with HuCDCP1-C, the “ka” value turned out to be 122000 M⁻¹ s⁻¹ and the “kd” value was 0.000385 s⁻¹.

B7: 14A10C5: anti-CDCP1 murine monoclonal antibody (hybridoma); VH SEQ ID NO: 257, VL SEQ ID NO: 307 (antibody, V domains shown)
VH: EVKLVESGPGILQPSQTLSLTCSFSGFSLSTSGMGVSWIRQPSGKGLEWLAHIYWDDEKRYNPSLKSRLTISKDTSSNQVFLKITSVDTADTATYYCAREGSANWEAMDYWGQGTTVTVSS
VL: DIVMTQAALSLPVSLGDQASISCRSSQNIVYTNGITYLEWYLQKPGQSPKLLIYKVSNRFSGVPDRFSGSGSATDFTLKISRVEAEDLGVYYCFQSSHVPWTFGGGTKLEIK
modifications: 14A10C5 heavy chain variable region; 14A10C5 light chain variable region
On to B7, for which the “Internalization PC3 (%) 2 h” value in the assay with PC3 cells was 51.73%. For the same molecule, in the assay on MDA-MB-231 cells [2], the “Internalization MDA-MB-231 (%) 2 h” value was 39.23%. In the assay on MDA-MB-231 cells [3], the “effect on tumor cell migration (transwell, FIG. 4c)” value is reported as “better capability to inhibit tumor cell migration than SEQ135”.
